Assay results reported in patent publication US20150133367A1 (University of Pennsylvania, published 2015).
Read-outs that look alike come from different tables or passages of the source. Blank lines part the entries; values can stand above or below the binder they belong to. Positions of bridges follow the written chain, without caps; N, C: chain ends. Non-standard residues stand in square brackets, D forms with d. No end group written: not given here. alpha,alpha'‑meta‑xylylene = alpha,alpha'-meta-xylylene linker (from a,a'-dibromo-meta-xylene) bridging two cysteines via bis-thioether; Bip = N[C@@H](Cc1ccc(-c2ccccc2)cc1)C(=O)O; 2Nal = N[C@@H](Cc1ccc2ccccc2c1)C(=O)O

What was measured:
Experiment in all cases: fluorescence-based enzyme inhibition assay
Calpain-1 [1] = biological target: Calpain-1
Cathepsin L [2] = biological target: T1, Cathepsin L (UniProt P07711 114-333)
T1 sequence (P07711 114-333 limits assumed): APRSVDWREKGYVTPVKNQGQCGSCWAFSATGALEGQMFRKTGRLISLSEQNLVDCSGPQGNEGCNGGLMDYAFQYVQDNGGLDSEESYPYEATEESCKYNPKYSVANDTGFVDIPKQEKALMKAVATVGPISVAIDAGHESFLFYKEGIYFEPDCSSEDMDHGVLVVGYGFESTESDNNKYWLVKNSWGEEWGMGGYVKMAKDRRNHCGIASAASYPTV

Cathepsin L [3] = biological target: T1, Cathepsin L; remark: listed apart in the source
Calpain-1 [4] = biological target: T2, Calpain-1
T2 chain 1: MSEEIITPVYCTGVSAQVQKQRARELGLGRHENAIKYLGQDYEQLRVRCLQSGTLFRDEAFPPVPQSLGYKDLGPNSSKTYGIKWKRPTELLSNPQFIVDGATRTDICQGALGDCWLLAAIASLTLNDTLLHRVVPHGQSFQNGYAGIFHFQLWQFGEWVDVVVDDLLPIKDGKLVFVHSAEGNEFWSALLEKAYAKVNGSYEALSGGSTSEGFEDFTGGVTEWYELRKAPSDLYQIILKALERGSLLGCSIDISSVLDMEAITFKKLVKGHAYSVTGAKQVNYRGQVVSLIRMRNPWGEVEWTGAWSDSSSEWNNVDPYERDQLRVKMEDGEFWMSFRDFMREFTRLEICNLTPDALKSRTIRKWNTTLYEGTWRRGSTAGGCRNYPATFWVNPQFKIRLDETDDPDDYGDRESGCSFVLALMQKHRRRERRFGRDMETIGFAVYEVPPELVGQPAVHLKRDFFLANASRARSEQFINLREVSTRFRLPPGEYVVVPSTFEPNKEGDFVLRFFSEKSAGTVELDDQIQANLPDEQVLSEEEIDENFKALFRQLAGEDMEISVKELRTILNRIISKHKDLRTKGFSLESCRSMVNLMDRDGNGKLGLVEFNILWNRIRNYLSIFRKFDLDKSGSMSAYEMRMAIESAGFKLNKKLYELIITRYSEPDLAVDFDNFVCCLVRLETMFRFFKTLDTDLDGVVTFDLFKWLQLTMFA
T2 chain 2: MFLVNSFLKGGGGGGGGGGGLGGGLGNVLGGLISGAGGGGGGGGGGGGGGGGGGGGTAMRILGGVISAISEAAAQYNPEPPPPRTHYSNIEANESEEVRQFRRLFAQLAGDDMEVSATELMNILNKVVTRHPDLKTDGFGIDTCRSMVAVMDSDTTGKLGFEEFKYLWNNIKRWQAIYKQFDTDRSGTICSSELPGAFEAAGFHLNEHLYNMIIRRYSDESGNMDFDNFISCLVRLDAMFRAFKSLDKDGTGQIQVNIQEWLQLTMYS

Cathepsin S = Cathepsin S (UniProt P25774 115-331)
Sequence of Cathepsin S (P25774 115-331 limits assumed): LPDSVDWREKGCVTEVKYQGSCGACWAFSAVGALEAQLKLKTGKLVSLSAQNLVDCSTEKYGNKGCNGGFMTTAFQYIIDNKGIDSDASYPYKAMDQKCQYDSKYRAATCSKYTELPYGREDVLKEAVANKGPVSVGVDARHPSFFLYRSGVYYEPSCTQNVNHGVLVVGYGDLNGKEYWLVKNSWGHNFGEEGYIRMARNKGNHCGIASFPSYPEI

Cathepsin L [5] = biological target: T1, Cathepsin L; remark: listed apart in the source
Cathepsin K [6] = biological target: T3, Cathepsin K (UniProt P43235 115-329)
T3 sequence (looked up): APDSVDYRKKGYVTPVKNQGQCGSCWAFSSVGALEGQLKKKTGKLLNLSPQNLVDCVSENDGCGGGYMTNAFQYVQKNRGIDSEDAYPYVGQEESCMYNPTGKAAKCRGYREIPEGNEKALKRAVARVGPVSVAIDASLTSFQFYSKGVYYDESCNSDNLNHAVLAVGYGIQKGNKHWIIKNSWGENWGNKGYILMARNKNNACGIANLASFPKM

Cathepsin K [7] = biological target: T3, Cathepsin K; remark: listed apart in the source

B1: IPPK(OBn-Y)CELLC (SEQ ID NO:83) (peptide)
peptide: IPPKXCELLC
modifications: Cys6 and Cys10 (i,i+4) linked by alpha,alpha'-meta-xylylene; residue 5 OBn-Y = O-benzyltyrosine
- Ki (Calpain-1 [1]): 21.3 µM
- Ki (Cathepsin L [2]): 16.7 µM

B2: IPPK(bip)CELLC (SEQ ID NO:82) (peptide)
peptide: IPPK[Bip]CELLC
modifications: linker 6-10 via alpha,alpha'‑meta‑xylylene
- Ki (Calpain-1 [1]): 9.65 µM

B3: SECFRQCMNGF (SEQ ID NO:2) (peptide)
peptide: SECFRQCMNGF
modifications: linker 3-7 via alpha,alpha'‑meta‑xylylene
- Ki (Cathepsin L [3]): 84.7 µM

Continued, values first:

- Ki (Calpain-1 [4]): 19.8 µM
B4: SCE(bip)RCVMNG(nap) (SEQ ID NO:9) (peptide)
peptide: SCE[Bip]RCVMNG[2Nal]
modifications: linker 2-6 via alpha,alpha'‑meta‑xylylene
notes: also called compound (IIIa)

- Ki (Cathepsin S): 43.5 µM
- Ki (Cathepsin L [5]): 46.2 µM
- Ki (Cathepsin K [6]): 76.8 µM
B5: QCEVVCKMTGL (SEQ ID NO:34) (peptide)
peptide: QCEVVCKMTGL
modifications: linker 2-6 via alpha,alpha'‑meta‑xylylene

- Ki (Cathepsin S): 58.3 µM
- Ki (Cathepsin L [5]): 48 µM
- Ki (Cathepsin K [6]): > 100 µM
B6: SCEVVCKPTGL (SEQ ID NO:39) (peptide)
peptide: SCEVVCKPTGL
modifications: linker 2-6 via alpha,alpha'‑meta‑xylylene

- Ki (Cathepsin L [3]): 29.4 µM
- Ki (Cathepsin K [7]): > 100 µM
B7: SCEFRCVMNGF (SEQ ID NO:3) (peptide)
peptide: SCEFRCVMNGF
modifications: linker 2-6 via alpha,alpha'‑meta‑xylylene
